These binders were tested against HCV-1 E1E2 (autologous strain) (Hepatitis C virus genotype 1a, strain …, UniProt P26664, strain) (assay: ELISA).

Binder	binding result
RM11-43 heavy-chain variant I52A (antibody, V domains shown) VH: QVQLVQSGAEVKKPGASVKLSCKASGFTFRIYAISWVRQAPGQGLEWMGEIAPLGGITNYAQKFQGRVTITADTSTSTAYMELSSLRSEDTAVYYCARGETKMITVLAGTTGGGLDSWGQGTLVTVSS VL: DIQMTQSPSSLSASVGDKVTITCHASQGISSWLAWYQQKPGKAPKPLIYAASSLQSGVPSRFSGGGSGADYTLTISSLQPEDFATYYCQQYDDLPRTFGQGTKVEIK	binds
RM11-43 heavy-chain variant I56A (antibody, V domains shown) VH: QVQLVQSGAEVKKPGASVKLSCKASGFTFRIYAISWVRQAPGQGLEWMGEIIPLGGATNYAQKFQGRVTITADTSTSTAYMELSSLRSEDTAVYYCARGETKMITVLAGTTGGGLDSWGQGTLVTVSS VL: DIQMTQSPSSLSASVGDKVTITCHASQGISSWLAWYQQKPGKAPKPLIYAASSLQSGVPSRFSGGGSGADYTLTISSLQPEDFATYYCQQYDDLPRTFGQGTKVEIK	binds
RM11-43 heavy-chain variant L53A (antibody, V domains shown) VH: QVQLVQSGAEVKKPGASVKLSCKASGFTFRIYAISWVRQAPGQGLEWMGEIIPAGGITNYAQKFQGRVTITADTSTSTAYMELSSLRSEDTAVYYCARGETKMITVLAGTTGGGLDSWGQGTLVTVSS VL: DIQMTQSPSSLSASVGDKVTITCHASQGISSWLAWYQQKPGKAPKPLIYAASSLQSGVPSRFSGGGSGADYTLTISSLQPEDFATYYCQQYDDLPRTFGQGTKVEIK	binds
RM2-01 heavy-chain variant I51A (antibody, V domains shown) VH: QVQLVQSGAEVKKPGASVKLSCKASGFTFRIYAISWVRQAPGQGLEWMGEAVPLGGITNYAQNFQGRAAITADTSINTAYMELSSLRSDDTAVYYCARVRTALVGPREGIFDFWGQGVLVTVSS VL: DIQMTQSPSSLSASVGDRVSITCRASQTISTYLAWYQQKPGKVPKLLIYTASTLETGVPSRFSGSGSGTEFTLTISSLQPEDFATYYCQQHDSHPYSFGQGTKVEIK	binds
RM2-01 heavy-chain variant I56A (antibody, V domains shown) VH: QVQLVQSGAEVKKPGASVKLSCKASGFTFRIYAISWVRQAPGQGLEWMGEIVPLGGATNYAQNFQGRAAITADTSINTAYMELSSLRSDDTAVYYCARVRTALVGPREGIFDFWGQGVLVTVSS VL: DIQMTQSPSSLSASVGDRVSITCRASQTISTYLAWYQQKPGKVPKLLIYTASTLETGVPSRFSGSGSGTEFTLTISSLQPEDFATYYCQQHDSHPYSFGQGTKVEIK	binds
RM2-01 heavy-chain variant P52aA (antibody, V domains shown) VH: QVQLVQSGAEVKKPGASVKLSCKASGFTFRIYAISWVRQAPGQGLEWMGEIVALGGITNYAQNFQGRAAITADTSINTAYMELSSLRSDDTAVYYCARVRTALVGPREGIFDFWGQGVLVTVSS VL: DIQMTQSPSSLSASVGDRVSITCRASQTISTYLAWYQQKPGKVPKLLIYTASTLETGVPSRFSGSGSGTEFTLTISSLQPEDFATYYCQQHDSHPYSFGQGTKVEIK	binds
